From the supplement of paper PMC9170038

Test system: MS2 coat protein
Assay: apparent KD of MS2 coat protein; designed switch direction (-1 OFF switch, 1 ON switch): -1; higher = weaker reporter binding
Outline: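 Three titration conditions were used: no input, 200 uM small-molecule ligand, and an oligonucleotide input. In each, SNAP-549-labelled MS2 coat protein was raised from 0.7 or 1.5 nM, doubling, to 3 µM over designed RNA switches transcribed on Illumina chips by stalled E. coli RNA polymerase. Curve fits of normalised cluster fluorescence gave values whose per-design median over clusters is the apparent KD.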

[1] = input ligand: microRNA oligo, concentration not stated
[2] = Eterna round: R95, input ligand: FMN 200 uM
[3] = Eterna round: R95, input ligand: microRNA oligo, concentration not stated
[4] = Eterna round: R95, input ligand: none

| Sequence | apparent KD of MS2 coat protein (input ligand: FMN 200 uM) [nM] | apparent KD of MS2 coat protein [1] [nM] | apparent KD of MS2 coat protein (input ligand: none) [nM] | apparent KD of MS2 coat protein [2] [nM] | apparent KD of MS2 coat protein [3] [nM] | apparent KD of MS2 coat protein [4] [nM] |
| --- | --- | --- | --- | --- | --- | --- |
| UUUUGGCAUGUAGGAUAUGGGUCCGAUUGGGAUUUAGAAGGACAUGAGGAUCACCCAUGUGCCCUUACUUGGUGUUUUUUUUUU [EXclNG1-LROPPY20] (Eterna round: R96, puzzle: Exclusion NG 1) | 126 | 44.6 | 91.6 |  |  |  |
| AAAAGGUGAGGAUAUGAGGCGCCGGGCCGGUUGGUGCGGAUUCAGAAGGCACAUGAGGAUCACCCAUGUAAUAA [Excls4-II] (puzzle: Exclusion 4) |  |  |  | 52.2 | 38.7 | 50.4 |
| UGAGUGUUAGGAUAUCGCGGUUAGGCGAGUUGCUUAAUGAUCGAGAAGGGACAUGAGGAUCACCCAUGUGGGAC [Eternabot (L1) Solution 40] (Eterna round: R97, puzzle: Exclusion 4) | 127 |  | 112 |  |  |  |
| AGUACUAUGCGUGCUGACAUGCGUAGUGCAGCAGGUGUAACAUGAGGAUCACCCAUGUCCUCAUUUGCUCGUCUUAU [Mat - Sensor v3 - Turn-off var 2 - D12] (puzzle: Sensor v3, turn-off variant 2) |  |  |  | 116 | 201 | 127 |
| CGGGUCUGAGGAUAUCCACCCUCAUACAUGAGGAUCACCCAUGUUCACCCUUGGGUUCCCGGAGAAGGCAGUUUUC [Megrez-3.6] (Eterna round: R97, puzzle: Exclusion 5) | 275 |  | 208 |  |  |  |
| UUUGUUUGGUAGGAUAUCAACUAAGAGAGUGGCUGAGAAGGACCAACAUGAGGAUCACCCAUGUCGGUUCCGUU [EX6 C.15] (Eterna round: R97, puzzle: Exclusion 6) | 16.2 |  | 14.8 |  |  |  |
| GUAGAGUAAGGAUAUGCUGAAUAGGAUAGAAUGGUUAGAAAGUAGAAGGUACAUGAGGAUCACCCAUGUAAUGU [Excluse me!!!! 24 - Jieux - Exclusion 4] (puzzle: Exclusion 4) |  |  |  |  | 20.3 |  |
| CUCCGGCGUGUAGGAUAUGGUUCCGUUUCGGUUCCAGAAGGACAUGAGGAUCACCCAUGUACAUGUCGUCGGUCGUCACCGGGC [salish99_ExNG1_r04_215] (Eterna round: R96, puzzle: Exclusion NG 1) | 120 | 21.7 | 35.4 |  |  |  |
| ACAUGAGGAUCACCCAUGUCCGUCUGGUCUGUCUCGGCUGUCGAGGAUAUAGCUCGGUAUCCGCGCUAGAAGGCGGGAGCCGGU [Aenatbe mod 92] (Eterna round: R96, puzzle: Exclusion NG 3) | 30.9 | 31.8 | 35 |  |  |  |
| GACUUCUCUGAGGAUAUUGCAUCAUACGAUCUAUAAGAAGGCAGAACAUGAGGAUCACCCAUGUGGGUUUCUAG [Bingo-Bango-28] (Eterna round: R97, puzzle: Exclusion 6) | 70.2 |  | 38.3 |  |  |  |
| CCUCUACAUGAGGAUCACCCAUGUGAGGAUAUCUCGGAGCAGCCACUUAAAGCACUCCAGAGAAGGCACGUGUA [Mavemain] (puzzle: Exclusion 1) |  |  |  |  | 15.5 |  |
| UAUUUGCAAGCGAGAUCCCACAUGAGGAUCACCCAUGUGCUCGUCUUAUAAGGUACUGUGACGAUAGUCACGGUACC [Mat - Sensor, turn-off var - Eli Mod - D89] (Eterna round: R97, puzzle: Sensor, turn-off variant 1) | 14 |  | 14.4 |  |  |  |
| ACCGAACAUGAGGAUCACCCAUGUAAGGAUAUCCGUGGACAGCGCCAAAGUUACCGGCGGAGAAGGUGCAUGGU (Eterna round: R97, puzzle: Exclusion 1) | 24.6 |  | 19.2 |  |  |  |
| CAUUGUUACGGAGGAUAUCGUAUUGAGAUACUAUGAGAAGGCCGAAUAAACAUGAGGAUCACCCAUGUGAGACGGAUGCUUGUG [Ex NG1 #35] (Eterna round: R96, puzzle: Exclusion NG 1) | 33.1 | 14.9 | 18.9 |  |  |  |
| GAUAGAGAGCAGGAUAUCUUGGAUAAGUGUUGUAGAGAAGGGCUCACAUGAGGAUCACCCAUGUGGUCCUAGAU [JL Dibiri mod 09] (puzzle: Exclusion 6) |  |  |  | 37.5 | 13.2 | 14.3 |
| GUUGUUUAUGUAGGAUAUGCCUGGCGUGCCUAAGCAGAAGGACAUGAGGAUCACCCAUGUAUUGCGGUCUGCGUUCAGAUCGCU [salish99_ExNG1_r4_019] (Eterna round: R96, puzzle: Exclusion NG 1) | 36.8 | 17.2 | 23.8 |  |  |  |
| CCAACCAGAGGAUAUGCGCAUAGAUCAGACUUUGUUUCUUAACAUGAGGAUCACCCAUGUAGAAGGCUGUAACC [Ex2 #76] (Eterna round: R97, puzzle: Exclusion 2) | 21.6 |  | 20 |  |  |  |
| CCGCAAAUGAAGGAUAUCGUAUCGGAUACGAUACGAGAAGGUCGAACAUGAGGAUCACCCAUGUGUCCUAGCGG [Fiskers Ex 6 - 41] (puzzle: Exclusion 6) |  |  |  | 19.4 | 11.2 | 12.1 |

| Sequence | apparent KD of MS2 coat protein (input ligand: FMN 200 uM) [nM] | apparent KD of MS2 coat protein [1] [nM] | apparent KD of MS2 coat protein (input ligand: none) [nM] | apparent KD of MS2 coat protein [2] [nM] | apparent KD of MS2 coat protein [3] [nM] | apparent KD of MS2 coat protein [4] [nM] |
| --- | --- | --- | --- | --- | --- | --- |
| AAUCCACAUGAGGAUCACCCAUGUCAGGAUAUGGUGACGCGGGUUUCGGUGCGUGUUGCCAGAAGGGACGGCUG (puzzle: Exclusion 1) |  |  |  |  | 23.8 |  |
| UUUACAAGCUUAAGAUCCCACAUGAGGAUCACCCAUGUUGCUGCCGUGAGGUAGCUUUUAACUUAUGCUCGUCUUAU [JL TOV1 3.42] (Eterna round: R97, puzzle: Sensor, turn-off variant 1) | 94 |  | 110 |  |  |  |
| AUCAUGUAAGGAUAUCUUACAUGUGACUUCGGUCACAGUUAAGAGAAGGUACAUGAGGAUCACCCAUGUAUAAC [Ex4-3: 37] (puzzle: Exclusion 4) |  |  |  |  | 25.3 |  |
| UGCGAAGAGUGAGGAUAUGUGCGACAAAGUUGCACAGAAGGCACAUGAGGAUCACCCAUGUGAGCUAGGUCGAAAGACCUAGCG [Omei Exc(NG)1 Av7] (Eterna round: R96, puzzle: Exclusion NG 1) | 43.4 | 17.3 | 24.8 |  |  |  |
| UCCUUACAUGAGGAUCACCCAUGUGAGGAUAUGAGGGUUGAUUUAAAUGGGUUGAUUUUCAGAAGGCACAUGAA [JR_Ex1_Sub062] (Eterna round: R97, puzzle: Exclusion 1) | 46.2 |  | 50.9 |  |  |  |
| GCCUUAUCUGUCAGGAUAUACAAUAAAAUAAUUAUGUAGAAGGGACAUGAGGAUCACCCAUGUACAUUACAUUG [alecazam25] (Eterna round: R97, puzzle: Brourd's mod of Exclusion 4) | 50 |  | 22 |  |  |  |
| CAGUACUGAGGAUAUACAUGAGGAUCACCCAUGUGUACCAGCUAGGAAACUAGCAAAAGUAGAAGGCAGUACUG [828 mod 2 m10] (Eterna round: R97, puzzle: Exclusion 3) | 32.6 |  | 14.9 |  |  |  |
| GUUUUCAGACGGAGAUCCUACAUGAGGAUCACCCAUGUCUCACAAGCUAAUUGCUCGUCUUAUUCUCCUCUGUUCUC [Elimod 40 - Jieux - Sensor, turn-off variant 1] (Eterna round: R97, puzzle: Sensor, turn-off variant 1) | 21.8 |  | 24.3 |  |  |  |
| CUUUUUGUCGAGGAUAUGCACCAGCUCACUGACGCAGAAGGCGACACAUGAGGAUCACCCAUGUCAGUUCGCGU [salish99_ex6_r004_433] (Eterna round: R97, puzzle: Exclusion 6) | 35.3 |  | 20 |  |  |  |
| UUCUUGGCAGGAUAUGCUCUUUUAGACAUGAGGAUCACCCAUGUGUUUAUUCUUUUUUUUGCAGAAGGGCCUUAAU [JR_E5_Sub044] (Eterna round: R96, puzzle: Exclusion 5) | 176 | 68.6 | 98.1 |  |  |  |
| ACAAGCUUUUUGCUCGAAGAGUAGAAACGUGAGAGCGAAACAUGAGGAUCACCCAUGUAAAGGCAGUAGGUGAAGAU [JR_SV3TOV2_Sub024] (puzzle: Sensor v3, turn-off variant 2) |  |  |  | 39.8 | 57.4 | 57.2 |
| UAUUAAACAUAGGAUAUCGAAAAUAUCAUUUAACGAGAAGGAUGAACAUGAGGAUCACCCAUGUGGUAUCAUGG [Mat - Exclusion 6 - JL Mod - D15] (puzzle: Exclusion 6) |  |  |  | 426 | 289 | 148 |
| CGGGAGGGACAAGCUUUUUGCACGUCUGUUAUUGAUGCAACAUGAGGAUCACCCAUGUUUAGGGUGUGAGAGGAUGG [JR_SV3TOV2_Sub051] (puzzle: Sensor v3, turn-off variant 2) |  |  |  | 373 | 471 | 553 |
| GCUGGAGCAGGAUAUUCAAUAUCACACAUGAGGAUCACCCAUGUCCAGCGAAAGCUGGAGGGAGAAGGGCUCUAGC [Mat - Exclusion 5 - Eli mod - D98] (puzzle: Exclusion 5) |  |  |  | 17.6 | 60.4 | 76 |
| AAGAGAGCAGGAUAUCGGUUUUGCGACAUGAGGAUCACCCAUGUGAGCCGAGUCCAACGCCGAGAAGGGCUAAAAU [Onesis] (puzzle: Exclusion 5) |  |  |  |  | 53.3 |  |
| UGUUGUUGUUUCCGUUCUUACAUGAGGAUCACCCAUGUUUCUUGUCGUGCUCGCGUUGCUCGUCAGACUACCUGUUG [salish99_TOv1_r3_065] (puzzle: Sensor v3, turn-off variant 1) |  |  |  | 93.4 |  | 151 |
| UUUUAACAUGAGGAUCACCCAUGUGAGGAUAUCGAAAUUUAUAUUUAUAUUUAUAUUACGAGAAGGCACAUUUU [JMF 98] (puzzle: Exclusion 1) |  |  |  |  | 84.3 |  |
